≈ marks a conversion by molar mass, not a printed value. Where two headings read alike, the source gives them in different places.
Assays:
A. xylosoxidans [1] = assay: Time-kill assay in cystic fibrosis patient sputum, A. xylosoxidans; assay type: cell-based, Achromobacter xylosoxidans
Excerpt: (§1) Sputum from 5 cystic fibrosis patients was pooled. The resulting mixture was not filtered, as it was very dense and not amenable to sterilization by filtration. Sputum is known to be a complex mixture of DNA, carbohydrates, and lipids ([…], 2016). As used herein, the term “sputum” refers to the mucus present in the respiratory tract of an animal, such as a human. Sputum may increase in thickness due to the irritation or infection, including bacterial infection, and in some instances, may be expelled by the animal while coughing. In certain instances, cystic fibrosis may be characterized by the presence of a thick, sticky mucus or sputum present in the lungs of cystic fibrosis patients. The activity of GN370, AM1, AM2, AM3, and meropenem was determined in the sputum using a time-kill assay format as disclosed in Zhang et al., Antimicrobial peptide therapeutics for cystic fibrosis, Antimicrobial Agents Chemother. 2005; 49(7):2921-2927. […] Untreated controls were included in addition to pretreatment plating (t=0) for a baseline CFU determination. Activity was also determined in the absence of sputum for comparison to activity observed in the presence of sputum.

B. cenocepacia = assay: MIC by broth microdilution against B. cenocepacia; assay type: cell-based, Burkholderia cenocepacia; set-up: MIC Range: unit not given beside the values
Method: (§2) MIC values were determined using a modification of the standard broth microdilution reference method defined by the Clinical and Laboratory Standards Institute (CLSI), CLSL. 2015. Methods for Dilution Antimicrobial Susceptibility Tests for Bacteria That Grow Aerobically; Approved Standard-10th Edition. Clinical and Laboratory Standards Institute, Wayne, PA. The modification was based on the replacement of Mueller Hinton Broth with either CAA media (with and without NaCl) or CAA supplemented with 2.5% human serum. MIC is the minimum concentration of peptide sufficient to suppress at least 80% of the bacterial growth compared to control.
(§3) Based on these nine most prevalent strains, direct lytic agents, including GN370, AM1, AM2, and AM3, were evaluated against various isolates from each of the 9 strains. MICs and MBECs (Example 3) were determined, and a sputum inhibition test was conducted, as described below in Example 5.
(§4) The MICs for were determined as described below using the broth microdilution method for meropenem, GN370, AM1, AM2, and AM3. The results are shown below in Tables 8-12.

S. maltophilia = assay: Time-kill assay in cystic fibrosis patient sputum, S. maltophilia; assay type: cell-based, Stenotrophomonas maltophilia
Excerpt: as §1

B. gladioli = assay: MIC by broth microdilution against B. gladioli; assay type: cell-based, Burkholderia gladioli; details: B. gladioli isolates
Method: as §2, §3, §4

B. multivorans = assay: MIC by broth microdilution against B. multivorans; assay type: cell-based, Burkholderia multivorans; details: B. multivorans isolates
Method: as §2, §3, §4

A. dolens = assay: MIC by broth microdilution against A. dolens; assay type: cell-based, Achromobacter dolens; details: A. dolens isolates
Method: as §2, §3, §4

A. xylosoxidans [2] = assay type: cell-based, Achromobacter xylosoxidans; details: for MIC: A. xylosoxidans test organism of the sputum time-kill assay
Method: as §2, §4
The activity of GN370 and AM1 was evaluated against various bacterial isolates, including mucoid and α-hemolytic isolates of P. aeruginosa, MDR isolates, and carbapenem-resistant isolates.

A. ruhlandii = assay type: cell-based, Achromobacter ruhlandii; details: A. ruhlandii (15); 2-hour treatment
Method: The MBEC (after 2-hour treatments) was determined as described in Jones and Wozniak, PsI Produced by Mucoid Pseudomonas aeruginosa Contributes to the Establishment of Biofilms and Immune Evasion, Am. Soc. Microbiol. 2017, 8(3):e00864-17. Meropenem and tobramycin were included as controls and were both poorly active, with MBEC90 values of >256 μg/mL (data not shown).

[3] = Burkholderia cenocepacia, N 15 (Table 26)
[4] = Achromobacter xylosoxidans, N 11 (Table 26)

Molecule | Log10 CFU/mL of sputum (A. xylosoxidans [1]; absence of sputum, 1 hr) | Log10 CFU/mL of sputum (A. xylosoxidans [1]; absence of sputum, 3 hr) | Log10 CFU/mL of sputum (A. xylosoxidans [1]; absence of sputum, 24 hr) | Log10 CFU/mL of sputum (A. xylosoxidans [1]; presence of 10% sputum, 1 hr) | Log10 CFU/mL of sputum (A. xylosoxidans [1]; presence of 10% sputum, 3 hr) | Log10 CFU/mL of sputum (A. xylosoxidans [1]; presence of 10% sputum, 24 hr) | MIC50 (B. cenocepacia; B. cenocepacia isolates) [µg/mL] | MIC90 (B. cenocepacia; B. cenocepacia isolates) [µg/mL] | Log10 CFU/mL of sputum (S. maltophilia; absence of sputum, 1 hr) | Log10 CFU/mL of sputum (S. maltophilia; absence of sputum, 3 hr) | Log10 CFU/mL of sputum (S. maltophilia; absence of sputum, 24 hr) | Log10 CFU/mL of sputum (S. maltophilia; presence of 10% sputum, 1 hr) | Log10 CFU/mL of sputum (S. maltophilia; presence of 10% sputum, 3 hr) | Log10 CFU/mL of sputum (S. maltophilia; presence of 10% sputum, 24 hr) | MIC50 (B. gladioli) [µg/mL] | MIC90 (B. gladioli) [µg/mL] | MIC50 (B. multivorans) [µg/mL] | MIC90 (B. multivorans) [µg/mL] | MIC50 (A. dolens) [µg/mL] | MIC90 (A. dolens) [µg/mL] | further results
C[C@@H](O)[C@H]1C(=O)N2C(C(=O)O)=C(S[C@@H]3CN[C@H](C(=O)N(C)C)C3)[C@H](C)[C@H]12 [meropenem, reference compound] | 4.9 Log10 CFU/mL of sputum | 5.3 Log10 CFU/mL of sputum | 7.3 Log10 CFU/mL of sputum | 4.78 Log10 CFU/mL of sputum | 4.3 Log10 CFU/mL of sputum | 7.56 Log10 CFU/mL of sputum | 4 (≈ 10.4 µM) | 8 (≈ 20.9 µM) | 5.04 Log10 CFU/mL of sputum | 4.7 Log10 CFU/mL of sputum | 7.95 Log10 CFU/mL of sputum | 3.78 Log10 CFU/mL of sputum | 4.26 Log10 CFU/mL of sputum | 6.3 Log10 CFU/mL of sputum | 1 (≈ 2.61 µM) | 2 (≈ 5.22 µM) | 8 (≈ 20.9 µM) | 32 (≈ 83.4 µM) | 2 (≈ 5.22 µM) | > 32 | activity in the presence and absence of sputum (A. xylosoxidans [1]): poorly active; MIC Range (B. cenocepacia; B. cenocepacia isolates): 2-32; activity in the presence and absence of sputum (S. maltophilia): poorly active; MIC50 (A. xylosoxidans [2]; A. xylosoxidans isolates): 4 µg/mL (≈ 10.4 µM); MIC90 (A. xylosoxidans [2]; A. xylosoxidans isolates): > 32 µg/mL; MIC (A. xylosoxidans [2]): Meropenem (MIC = 0.25)
GN370: lysin-AMP construct, SEQ ID NO: 149: MIDR, FIRL and NPTH moieties N-terminal to GN202 lysin (protein, GN370 lysin) MIDRFIRLNPTHGPRRPRRPGRRAPVRTSQRGIDLIKSFEGLRLSAYQDSVGVWTIGYGTTRGVTRYMTITVEQAERMLSNDIQRFEPELDRLAKVPLNQNQWDALMSFVYNLGAANLASSTLLDLLNKGDYQGAADQFPHWVNAGGKRLDGLVKRRAAERALFLEPLS | 3.7 Log10 CFU/mL of sputum | 3.3 Log10 CFU/mL of sputum | 2.3 Log10 CFU/mL of sputum | 3.6 Log10 CFU/mL of sputum | 3.3 Log10 CFU/mL of sputum | 2.3 Log10 CFU/mL of sputum | > 32 | > 32 | 2.3 Log10 CFU/mL of sputum | 2.3 Log10 CFU/mL of sputum | 2.3 Log10 CFU/mL of sputum | 3.48 Log10 CFU/mL of sputum | 2.3 Log10 CFU/mL of sputum | 2.3 Log10 CFU/mL of sputum | > 32 | > 32 | 16 | > 32 | 32 | > 32 | effect of sputum on antibacterial activity (A. xylosoxidans [1]; 10% CF sputum vs no sputum): none of GN370, AM1, AM2, and AM3 was inhibited; CFU reduction by 3 hours (A. xylosoxidans [1]; time-kill): ~2 log10; CFU reduction by 24 hours (A. xylosoxidans [1]; time-kill): > 3 log10; MBEC50 (A. ruhlandii): 4 µg/mL; MBEC90 (A. ruhlandii): 64 µg/mL; MBEC Range (A. ruhlandii): 4 to 64 µg/mL; MIC50 (B. cenocepacia; [3]): >64 µg/mL; MIC90 (B. cenocepacia; [3]): >64 µg/mL; effect of sputum on antibacterial activity (S. maltophilia; 10% CF sputum vs no sputum): none of GN370, AM1, AM2, and AM3 was inhibited; CFU reduction by 3 hours (S. maltophilia; time-kill): ~2 log10; killing by 24 hours (S. maltophilia; time-kill): complete killing; MIC50 (A. xylosoxidans [2]; A. xylosoxidans isolates): 8 µg/mL; MIC90 (A. xylosoxidans [2]; A. xylosoxidans isolates): > 32 µg/mL; MIC (A. xylosoxidans [2]): GN370 (MIC = 0.25); MIC50 (A. xylosoxidans [2]; [4]): >64 µg/mL; MIC90 (A. xylosoxidans [2]; [4]): >64 µg/mL

— patent US20240181022A1, “AMURINS LYSINS, AND LYSIN-ANTIMICROBIAL PEPTIDE (AMP) CONSTRUCTS ACTIVE AGAINST GRAM-NEGATIVE BACTERIA” (priority 2021, published 2024)
